B1: Melanoma-associated antigen 8 (Homo sapiens), P43361 (parent)
chain: MLLGQKSQRYKAEEGLQAQGEAPGLMDVQIPTAEEQKAASSSSTLIMGTLEEVTDSGSPSPPQSPEGASSSLTVTDSTLWSQSDEGSSSNEEEGPSTSPDPAHLESLFREALDEKVAELVRFLLRKYQIKEPVTKAEMLESVIKNYKNHFPDIFSKASECMQVIFGIDVKEVDPAGHSYILVTCLGLSYDGLLGDDQSTPKTGLLIIVLGMILMEGSRAPEEAIWEALSVMGLYDGREHSVYWKLRKLLTQEWVQENYLEYRQAPGSDPVRYEFLWGPRALAETSYVKVLEHVVRVNARVRISYPSLHEEALGEEKGV
partner: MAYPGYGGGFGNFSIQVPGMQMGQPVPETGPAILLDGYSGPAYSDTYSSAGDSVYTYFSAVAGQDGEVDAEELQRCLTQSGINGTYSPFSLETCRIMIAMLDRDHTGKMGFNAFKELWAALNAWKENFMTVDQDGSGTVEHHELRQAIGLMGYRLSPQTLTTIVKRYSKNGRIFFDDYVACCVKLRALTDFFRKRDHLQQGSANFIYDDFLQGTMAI
B2: Keratin-associated protein 3-2 (Homo sapiens), Q9BYR7 (parent)
chain: MDCCASRSCSVPTGPATTICSSDKSCRCGVCLPSTCPHTVWLLEPICCDNCPPPCHIPQPCVPTCFLLNSCQPTPGLETLNLTTFTQPCCEPCLPRGC
partner: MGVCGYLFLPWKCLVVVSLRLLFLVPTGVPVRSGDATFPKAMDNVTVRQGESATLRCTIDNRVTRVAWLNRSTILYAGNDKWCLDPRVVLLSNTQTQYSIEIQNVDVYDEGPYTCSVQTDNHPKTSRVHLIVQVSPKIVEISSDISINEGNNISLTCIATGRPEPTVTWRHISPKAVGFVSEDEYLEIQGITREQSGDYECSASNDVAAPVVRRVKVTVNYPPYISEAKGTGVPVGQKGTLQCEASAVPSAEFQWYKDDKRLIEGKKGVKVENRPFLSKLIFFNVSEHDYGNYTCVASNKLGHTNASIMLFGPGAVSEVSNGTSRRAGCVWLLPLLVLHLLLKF
B3: AN1-type zinc finger protein 2B (Homo sapiens), Q8WV99 (parent)
chain: MEFPDLGAHCSEPSCQRLDFLPLKCDACSGIFCADHVAYAQHHCGSAYQKDIQVPVCPLCNVPVPVARGEPPDRAVGEHIDRDCRSDPAQQKRKIFTNKCERAGCRQREMMKLTCERCSRNFCIKHRHPLDHDCSGEGHPTSRAGLAAISRAQAVASTSTVPSPSQTMPSCTSPSRATTRSPSWTAPPVIALQNGLSEDEALQRALEMSLAETKPQVPSCQEEEDLALAQALSASEAEYQRQQAQSRSSKPSNCSLC
partner: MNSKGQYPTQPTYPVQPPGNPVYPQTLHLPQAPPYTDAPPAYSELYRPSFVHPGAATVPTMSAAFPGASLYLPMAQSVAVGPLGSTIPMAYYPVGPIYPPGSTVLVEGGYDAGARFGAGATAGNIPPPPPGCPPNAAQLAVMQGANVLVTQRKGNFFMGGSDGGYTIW
B4: LIM/homeobox protein Lhx4 (Homo sapiens), Q969G2 (parent)
chain: MMQSATVPAEGAVKGLPEMLGVPMQQIPQCAGCNQHILDKFILKVLDRHWHSSCLKCADCQMQLADRCFSRAGSVYCKEDFFKRFGTKCTACQQGIPPTQVVRKAQDFVYHLHCFACIICNRQLATGDEFYLMEDGRLVCKEDYETAKQNDDSEAGAKRPRTTITAKQLETLKNAYKNSPKPARHVREQLSSETGLDMRVVQVWFQNRRAKEKRLKKDAGRHRWGQFYKSVKRSRGSSKQEKESSAEDCGVSDSELSFREDQILSELGHTNRIYGNVGDVTGGQLMNGSFSMDGTGQSYQDLRDGSPYGIPQSPSSISSLPSHAPLLNGLDYTVDSNLGIIAHAGQGVSQTLRAMAGGPTSDISTGSSVGYPDFPTSPGSWLDEMDHPPF
partner: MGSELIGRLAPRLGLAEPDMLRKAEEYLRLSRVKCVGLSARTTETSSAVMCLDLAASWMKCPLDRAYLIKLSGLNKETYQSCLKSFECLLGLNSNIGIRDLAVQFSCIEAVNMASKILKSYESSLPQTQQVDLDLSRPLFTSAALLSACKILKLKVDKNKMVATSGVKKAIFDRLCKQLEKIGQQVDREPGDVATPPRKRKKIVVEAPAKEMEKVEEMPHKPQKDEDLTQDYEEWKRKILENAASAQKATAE
B5: Mannose-1-phosphate guanylyltransferase regulatory subunit alpha (Homo sapiens), Q96IJ6 (parent)
chain: MLKAVILIGGPQKGTRFRPLSFEVPKPLFPVAGVPMIQHHIEACAQVPGMQEILLIGFYQPDEPLTQFLEAAQQEFNLPVRYLQEFAPLGTGGGLYHFRDQILAGSPEAFFVLNADVCSDFPLSAMLEAHRRQRHPFLLLGTTANRTQSLNYGCIVENPQTHEVLHYVEKPSTFISDIINCGIYLFSPEALKPLRDVFQRNQQDGQLEDSPGLWPGAGTIRLEQDVFSALAGQGQIYVHLTDGIWSQIKSAGSALYASRLYLSRYQDTHPERLAKHTPGGPWIRGNVYIHPTAKVAPSAVLGPNVSIGKGVTVGEGVRLRESIVLHGATLQEHTCVLHSIVGWGSTVGRWARVEGTPSDPNPNDPRARMDSESLFKDGKLLPAITILGCRVRIPAEVLILNSIVLPHKELSRSFTNQIIL
B6: Cyclin-dependent kinase 2-interacting protein (Homo sapiens), Q9BW66 (parent)
chain: MEAKTLGTVTPRKPVLSVSARKIKDNAADWHNLILKWETLNDAGFTTANNIANLKISLLNKDKIELDSSSPASKENEEKVCLEYNEELEKLCEELQATLDGLTKIQVKMEKLSSTTKGICELENYHYGEESKRPPLFHTWPTTHFYEVSHKLLEMYRKELLLKRTVAKELAHTGDPDLTLSYLSMWLHQPYVESDSRLHLESMLLETGHRAL
partner: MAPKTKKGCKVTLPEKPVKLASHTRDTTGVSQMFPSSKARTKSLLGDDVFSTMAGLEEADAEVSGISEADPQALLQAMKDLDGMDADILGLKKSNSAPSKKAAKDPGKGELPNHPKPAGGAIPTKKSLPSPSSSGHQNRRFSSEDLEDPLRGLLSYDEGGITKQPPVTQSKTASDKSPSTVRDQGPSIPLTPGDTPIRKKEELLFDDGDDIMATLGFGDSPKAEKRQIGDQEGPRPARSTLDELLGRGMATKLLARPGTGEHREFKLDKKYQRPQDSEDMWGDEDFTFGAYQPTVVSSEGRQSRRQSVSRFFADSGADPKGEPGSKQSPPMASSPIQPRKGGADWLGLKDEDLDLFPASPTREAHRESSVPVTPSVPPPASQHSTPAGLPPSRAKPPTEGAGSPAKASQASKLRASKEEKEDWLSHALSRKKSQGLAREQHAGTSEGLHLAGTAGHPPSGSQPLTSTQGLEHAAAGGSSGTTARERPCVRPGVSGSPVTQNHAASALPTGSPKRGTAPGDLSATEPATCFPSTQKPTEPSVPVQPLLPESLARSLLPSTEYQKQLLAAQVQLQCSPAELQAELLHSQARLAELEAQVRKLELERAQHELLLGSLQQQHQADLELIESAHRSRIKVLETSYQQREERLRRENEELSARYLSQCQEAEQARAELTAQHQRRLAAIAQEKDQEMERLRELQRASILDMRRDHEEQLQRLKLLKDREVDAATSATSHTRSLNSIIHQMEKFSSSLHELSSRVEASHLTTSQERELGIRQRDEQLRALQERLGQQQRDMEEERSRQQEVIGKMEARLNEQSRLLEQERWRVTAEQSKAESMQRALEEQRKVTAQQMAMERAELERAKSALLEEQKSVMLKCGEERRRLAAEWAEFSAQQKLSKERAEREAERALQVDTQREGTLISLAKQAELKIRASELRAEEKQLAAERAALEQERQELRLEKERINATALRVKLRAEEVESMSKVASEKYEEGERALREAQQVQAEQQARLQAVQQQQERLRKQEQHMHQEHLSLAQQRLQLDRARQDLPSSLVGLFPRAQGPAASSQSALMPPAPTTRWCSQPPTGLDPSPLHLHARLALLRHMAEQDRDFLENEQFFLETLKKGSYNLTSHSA
B7: Notch homolog 2 N-terminal-like protein A (Homo sapiens), Q7Z3S9 (parent)
chain: MCVTYHNGTGYCKCPEGFLGEYCQHRDPCEKNRCQNGGTCVAQAMLGKATCRCASGFTGEDCQYSTSHPCFVSRPCLNGGTCHMLSRDTYECTCQVGFTGKECQWTDACLSHPCANGSTCTTVANQFSCKCLTGFTGQKCETDVNECDIPGHCQHGGTCLNLPGSYQCQCLQGFTGQYCDSLYVPCAPSPCVNGGTCRQTGDFTFECNCLPETVRRGTELWERDREVWNGKEHDEN
partner: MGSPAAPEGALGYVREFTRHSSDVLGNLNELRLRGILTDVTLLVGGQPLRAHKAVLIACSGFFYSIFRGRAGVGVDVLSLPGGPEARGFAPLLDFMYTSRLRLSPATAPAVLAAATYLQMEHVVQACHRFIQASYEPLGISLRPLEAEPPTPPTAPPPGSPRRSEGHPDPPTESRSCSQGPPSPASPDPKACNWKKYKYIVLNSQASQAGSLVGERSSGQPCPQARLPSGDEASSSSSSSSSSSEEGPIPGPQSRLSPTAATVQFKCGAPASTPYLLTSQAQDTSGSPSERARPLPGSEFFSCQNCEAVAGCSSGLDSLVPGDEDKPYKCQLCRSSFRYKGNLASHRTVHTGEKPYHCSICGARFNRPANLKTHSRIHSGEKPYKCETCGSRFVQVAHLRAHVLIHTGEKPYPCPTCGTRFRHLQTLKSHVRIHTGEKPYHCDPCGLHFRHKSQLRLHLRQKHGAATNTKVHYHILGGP
B8: Forkhead box protein R1 (Homo sapiens), Q6PIV2 (parent)
chain: MGNELFLAFTTSHLPLAEQKLARYKLRIVKPPKLPLEKKPNPDKDGPDYEPNLWMWVNPNIVYPPGKLEVSGRRKREDLTSTLPSSQPPQKEEDASCSEAAGVESLSQSSSKRSPPRKRFAFSPSTWELTEEEEAEDQEDSSSMALPSPHKRAPLQSRRLRQASSQAGRLWSRPPLNYFHLIALALRNSSPCGLNVQQIYSFTRKHFPFFRTAPEGWKNTVRHNLCFRDSFEKVPVSMQGGASTRPRSCLWKLTEEGHRRFAEEARALASTRLESIQQCMSQPDVMPFLFDL
partner: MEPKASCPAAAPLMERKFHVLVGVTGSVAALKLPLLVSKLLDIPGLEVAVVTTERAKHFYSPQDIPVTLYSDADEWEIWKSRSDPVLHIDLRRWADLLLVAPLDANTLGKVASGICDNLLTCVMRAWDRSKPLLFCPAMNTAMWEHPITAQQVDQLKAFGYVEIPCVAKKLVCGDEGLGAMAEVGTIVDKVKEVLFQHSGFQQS

Variants of: B1
Details: with gran_human GCA

Variant | effect of a mutation on the interaction
R121H | with no effect

Variants of: B2
Details: with ntri_human NTM

Variant | effect of a mutation on the interaction
R27C | with no effect
S8G | with no effect

Variants of: B3
Details: with dazp2_human DAZAP2, Q15038

Variant | effect of a mutation on the interaction
P71H | with no effect

Variants of: B4
Details: with orc6_human ORC6, Q9Y5N6

Variant | effect of a mutation on the interaction
N328S | with no effect

Variants of: B5
Details: with gmppb_human GMPPB

Variant | effect of a mutation on the interaction
V156I | with no effect

Variants of: B6
Details: with fbf1_human FBF1, Q8TES7

Variant | effect of a mutation on the interaction
R164H | with no effect

Variants of: B6
Details: with fbf1_human FBF1, Q8TES7
Remark: another data set of the same source

Variant | effect of a mutation on the interaction
D177N | with no effect

Variants of: B7
Details: with bcl6b_human BCL6B

Variant | effect of a mutation on the interaction
R74Q | with no effect
A115T | with no effect

Variants of: B8
Details: with coac_human PPCDC

Variant | effect of a mutation on the interaction
A8T | with no effect

Source: IntAct's records for PubMed 31515488
